Measured values taken from the supplement of paper PMC11246515.
± gives the standard deviation of the averaged measurements.

Assay: total protein half-life in vivo (active degradation + dilution); higher = more stable protein
[1] = E. coli NCM3722 delta-clpP delta-lon delta-hslV, growth: N-lim chemostat, doubling time 6 h
[2] = wild type E. coli NCM3722, growth: C-lim chemostat, doubling time 3 h
[3] = wild type E. coli NCM3722, growth: C-lim chemostat, doubling time 6 h
[4] = wild type E. coli NCM3722, growth: C-lim chemostat, doubling time 12 h
[5] = E. coli NCM3722 delta-clpP, growth: N-lim chemostat, doubling time 6 h
[6] = E. coli NCM3722 delta-hslV, growth: N-lim chemostat, doubling time 6 h
[7] = E. coli NCM3722 delta-lon, growth: N-lim chemostat, doubling time 6 h
[8] = E. coli NCM3722 delta-smpB, growth: N-lim chemostat, doubling time 6 h
[9] = wild type E. coli NCM3722, growth: N-lim chemostat, doubling time 6 h
[10] = wild type E. coli NCM3722, growth: N-lim chemostat, doubling time 12 h
[11] = wild type E. coli NCM3722, growth: P-lim chemostat, doubling time 6 h
[12] = wild type E. coli NCM3722, growth: P-lim chemostat, doubling time 12 h

Row | Sequence | total protein half-life in vivo [1] [h] | total protein half-life in vivo [2] [h] | total protein half-life in vivo [3] [h] | total protein half-life in vivo [4] [h] | total protein half-life in vivo [5] [h] | total protein half-life in vivo [6] [h] | total protein half-life in vivo [7] [h] | total protein half-life in vivo [8] [h] | total protein half-life in vivo [9] [h] | total protein half-life in vivo [10] [h] | total protein half-life in vivo [11] [h] | total protein half-life in vivo [12] [h]
1 | MSLVCSVIFIHHAFNANILDKDYAFSDGEILMVDNAVRTHFEPYERHFKEIGFTENTIKKYLQCTNIQTVTVPVPAKFLRASNVPTGLLNEMIAYLNSEERNHHNFSELLLFSCLSIFAACKGFITLLTNGVLSVSGKVRNIVNMKPAHPWKLKDICDCLYISESLLKKKLKQEQTTFSQILLDARMQHAKNLIRVEGSVNKIAEQCGYASTSYFIYAFRKHFGNSPKRVSKEYRCQSHTGMNTGNTMNALAI | 4.92 |  |  |  |  |  |  |  |  |  |  | 
2 | MSLVTDLPAIFDQFSEARQTGFLTVMDLKERGIPLVGTYCTFMPQEIPMAAGAVVVSLCSTSDETIEEAEKDLPRNLCPLIKSSYGFGKTDKCPYFYFSDLVVGETTCDGKKKMYEYMAEFKPVHVMQLPNSVKDDASRALWKAEMLRLQKTVEERFGHEISEDALRDAIALKNRERRALANFYHLGQLNPPALSGSDILKVVYGATFRFDKEALINELDAMTARVRQQWEEGQRLDPRPRILITGCPIGGAAEKVVRAIEENGGWVVGYENCTGAKATEQCVAETGDVYDALADKYLAIGCSCVSPNDQRLKMLSQMVEEYQVDGVVDVILQACHTYAVESLAIKRHVRQQHNIPYIAIETDYSTSDVGQLSTRVAAFIEML |  | 1.59 ± 0.089 | 1.98 | 2.51 ± 0.083 |  |  |  |  |  |  |  | 
3 | MSLWKKISLGVVIVILLLLGSVAFLVGTTSGLHLVFKAADRWVPGLDIGKVTGGWRDLTLSDVRYEQPGVAVKAGNLHLAVGLECLWNSSVCINDLALKDIQVNIDSKKMPPSEQVEEEEDSGPLDLSTPYPITLTRVALDNVNIKIDDTTVSVMDFTSGLNWQEKTLTLKPTSLKGLLIALPKVAEVAQEEVVEPKIENPQPDEKPLGETLKDLFSRPVLPEMTDVHLPLNLNIEEFKGEQLRVTGDTDITVSTMLLKVSSIDGNTKLDALDIDSSQGIVNASGTAQLSDNWPVDITLNSTLNVEPLKGEKVKLKMGGALREQLEIGVNLSGPVDMDLRAQTRLAEAGLPLNVEVNSKQLYWPFTGEKQYQADDLKLKLTGKMTDYTLSMRTAVKGQEIPPATITLDAKGNEQQVNLDKLTVAALEGKTELKALLDWQQAISWRGELTLNGINTAKEFPDWPSKLNGLIKTRGSLYGGTWQMDVPELKLTGNVKQNKVNVDGTLKGNSYMQWMIPGLHLELGPNSAEVKGELGVKDLNLDATINAPGLDNALPGLGGTAKGLVKVRGTVEAPQLLADITARGLRWQELSVAQVRVEGDIKSTDQIAGKLDVRVEQISQPDVNINLVTLNAKGSEKQHELQLRIQGEPVSGQLNLAGSFDRKEERWKGTLSNTRFQTPVGPWSLTRDIALDYRNKEQKISIGPHCWLNPNAELCVPQTIDAGAEGRAVVNLNRFDLAMLKPFMPETTQASGIFTGKADVAWDTTKEGLPQGSITLSGRNVQVTQTVNDAALPVAFQTLNLTAELRNNRAELGWTIRLTNNGQFDGQVQVTDPQGRRNLGGNVNIRNFNLAMINPIFTRGEKAAGMVSANLRLGGDVQSPQLFGQLQVTGVDIDGNFMPFDMQPSQLAVNFNGMRSTLAGTVRTQQGEIYLNGDADWSQIENWRARVTAKGSKVRITVPPMVRMDVSPDVVFEATPNLFTLDGRVDVPWARIVVHDLPESAVGVSSDVVMLNDNLQPEEPKTASIPINSNLIVHVGNNVRIDAFGLKARLTGDLNVVQDKQGLGLNGQINIPEGRFHAYGQDLIVRKGELLFSGPPDQPYLNIEAIRNPDATEDDVIAGVRVTGLADEPKAEIFSDPAMSQQAALSYLLRGQGLESDQSDSAAMTSMLIGLGVAQSGQIVGKIGETFGVSNLALDTQGVGDSSQVVVSGYVLPGLQVKYGVGIFDSIATLTLRYRLMPKLYLEAVSGVDQALDLLYQFEF | 5.88 ± 0.49 | 3.04 ± 0.044 | 5.97 ± 0.5 | 11.7 ± 1.2 | 6.03 ± 0.44 | 6.95 ± 0.39 | 6.374 ± 0.041 | 5.69 ± 0.29 | 6.2514 ± 0.0027 | 12.1 ± 0.24 | 5.992 ± 0.026 | 12.22 ± 0.066
4 | MSMSHINYNHLYYFWHVYKEGSVVGAAEALYLTPQTITGQIRALEERLQGKLFKRKGRGLEPSELGELVYRYADKMFTLSQEMLDIVNYRKESNLLFDVGVADALSKRLVSSVLNAAVVEGEPIHLRCFESTHEMLLEQLSQHKLDMIISDCPIDSTQQEGLFSVRIGECGVSFWCTNPPPEKPFPACLEERRLLIPGRRSMLGRKLLNWFNSQGLNVEILGEFDDAALMKAFGAMHNAIFVAPTLYAYDFYADKTVVEIGRVENVMEEYHAIFAERMIQHPAVQRICNTDYSALFSPAVR [P0A9G2] | 6.03 ± 0.4 |  | 5.51 | 9.31 | 6.18 | 4.38 | 5.99 ± 1.4 | 5.21 ± 0.34 | 5.76 ± 1.2 |  | 4.93 ± 1.5 | 10.2
5 | MSNAITMGIFWHLIGAASAACFYAPFKKVKKWSWETMWSVGGIVSWIILPWAISALLLPNFWAYYSSFSLSTRLPVFLFGAMWGIGNINYGLTMRYLGMSMGIGIAIGITLIVGTLMTPIINGNFDVLISTEGGRMTLLGVLVALIGVGIVTRAGQLKERKMGIKAEEFNLKKGLVLAVMCGIFSAGMSFAMNAAKPMHEAAAALGVDPLYVALPSYVVIMGGGAIINLGFCFIRLAKVKDLSLKADFSLAKSLIIHNVLLSTLGGLMWYLQFFFYAWGHARIPAQYDYISWMLHMSFYVLCGGIVGLVLKEWNNAGRRPVTVLSLGCVVIIVAANIVGIGMAN |  |  |  |  |  |  |  |  |  | 7.44 |  | 
6 | MSNAQEAVKTRHKETSLIFPVLALVVLFLWGSSQTLPVVIAINLLALIGILSSAFSVVRHADVLAHRLGEPYGSLILSLSVVILEVSLISALMATGDAAPTLMRDTLYSIIMIVTGGLVGFSLLLGGRKFATQYMNLFGIKQYLIALFPLAIIVLVFPMALPAANFSTGQALLVALISAAMYGVFLLIQTKTHQSLFVYEHEDDSDDDDPHHGKPSAHSSLWHAIWLIIHLIAVIAVTKMNASSLETLLDSMNAPVAFTGFLVALLILSPEGLGALKAVLNNQVQRAMNLFFGSVLATISLTVPVVTLIAFMTGNELQFALGAPEMVVMVASLVLCHISFSTGRTNVLNGAAHLALFAAYLMTIFA |  |  |  | > 16 | > 8 |  |  | 6.69 |  |  | 6.87 | 
7 | MSNILIINGAKKFAHSNGQLNDTLTEVADGTLRDLGHDVRIVRADSDYDVKAEVQNFLWADVVIWQMPGWWMGAPWTVKKYIDDVFTEGHGTLYASDGRTRKDPSKKYGSGGLVQGKKYMLSLTWNAPMEAFTEKDQFFHGVGVDGVYLPFHKANQFLGMEPLPTFIANDVIKMPDVPRYTEEYRKHLVEIFG [P0AEY5] |  | 3.31 ± 0.43 | 4.76 ± 0.2 | 6.6 ± 0.75 | 1.93 ± 0.14 | 1.94 ± 0.091 | 2.18 ± 0.044 | 2.27 ± 0.32 | 2.12 ± 0.18 |  |  | 8.32 ± 0.26
